The results in this text go back to the RNAGym collection of RNA variant scans (doi:10.7554/elife.80360).

B1: Hairpin Ribozyme (parent)
chain: GUCCUCUUUCACGUGCGCGUGAAAGAGAGAAGUGAACCAGAGAAACACACGUUGUGGUAUAUUACCUGGUA

In the data set the parent is B1. Put plainly: self-cleavage, relative activity (ratio to wild type); higher = more cleavage; co-transcriptional.
In the case of G40U C66G, the self-cleavage came out at 0.11.

Turning to G40U C66A, the self-cleavage stood at 0.593.

Take G40U U55A: the self-cleavage was found to be 0.104.

With G40U C46A, the self-cleavage came to 0.16.

Regarding G40U C46U, the self-cleavage came to 0.106.

With A43C U55C, the self-cleavage came out at 0.201.

For the variant A43C U55A, the self-cleavage amounted to 0.174.

For A44C G57C, the self-cleavage was found to be 0.215.

With A44C G57A, the self-cleavage was 0.135.

On to G40C U70C, for which the self-cleavage amounted to 0.13.

Turning to G40C U70A, the self-cleavage turned out to be 0.143.

With G40C U70G, the self-cleavage worked out at 0.131.

As for G42U A64C, the self-cleavage turned out to be 0.18.

As for G42U A64U, the self-cleavage was 0.186.

On to G42U A64G, for which the self-cleavage was 0.154.

Turning to G42A C48A, the self-cleavage amounted to 0.0835.

Take A41U C46U: the self-cleavage came out at 0.0994.

G42A U70A: the self-cleavage stood at 0.0455.

In the case of A43U G54U, the self-cleavage came to 0.129.

For the variant A41U A61G, the self-cleavage turned out to be 0.148.

Consider A41U A61U, for which the self-cleavage amounted to 0.399.

Consider A44G C48U, for which the self-cleavage was 0.0899.

For A44G C48G, the self-cleavage is 0.115.

For the variant A41U C50A, the self-cleavage stood at 0.673.

With G40U U67A, the self-cleavage was 0.159.

Take G40C U53A: the self-cleavage worked out at 0.235.

As to A43G A47U, the self-cleavage amounted to 0.131.

Consider G42A U53A, for which the self-cleavage turned out to be 0.184.

For A44C U58C, the self-cleavage is 0.141.

Regarding A44C U58G, the self-cleavage is 0.128.

Take A43U C46U: the self-cleavage is 0.187.

As to A41U U63G, the self-cleavage is 0.223.

As to A41U U63C, the self-cleavage amounted to 0.248.

For A43U G56A, the self-cleavage worked out at 0.155.

For the variant A44C G51C, the self-cleavage worked out at 0.289.

Regarding A41C A71C, the self-cleavage amounted to 1.53.

Turning to G42C U52A, the self-cleavage was determined as 0.256.

Take A43C A61G: the self-cleavage was 0.147.

In the case of G42U A61G, the self-cleavage came out at 0.167.

As to G42A G54U, the self-cleavage was determined as 0.136.

Regarding G42A G54A, the self-cleavage came to 0.153.

As for G42A G54C, the self-cleavage was 0.168.

As for A41G U62G, the self-cleavage was determined as 0.325.

With A43C C50U, the self-cleavage is 0.13.

Take A43U A64G: the self-cleavage was found to be 0.159.

As to A44C U70C, the self-cleavage was 0.176.

Take A44C U70A: the self-cleavage came out at 0.109.

For G42U C65A, the self-cleavage is 0.142.

As for G40U A64G, the self-cleavage came to 0.103.

As for A43U C65G, the self-cleavage amounted to 0.155.

Consider A43U C65U, for which the self-cleavage is 0.144.

As for G42A A59C, the self-cleavage came out at 0.195.

For G40C U58G, the self-cleavage came out at 0.199.

On to A43G C46U, for which the self-cleavage is 0.0992.

G42A G69U: the self-cleavage worked out at 0.219.

As for G42C A71C, the self-cleavage came to 0.664.

In the case of G42A G51C, the self-cleavage is 0.21.

Regarding G42A G51U, the self-cleavage is 0.207.

As to G42A G51A, the self-cleavage was 0.25.

In the case of G40U U60G, the self-cleavage was determined as 0.128.

G42C U67C: the self-cleavage was determined as 0.137.

As to A43U A59C, the self-cleavage worked out at 0.12.

A41U U53A: the self-cleavage came out at 1.28.

On to G42U G68U, for which the self-cleavage came out at 0.14.

In the case of A43G U62G, the self-cleavage worked out at 0.0971.

Consider A43G U62C, for which the self-cleavage came to 0.162.

Turning to A43G U62A, the self-cleavage came to 0.125.

As to G42C C46G, the self-cleavage came to 0.103.

Take G40U A44G: the self-cleavage was 0.161.

Take G42U A47G: the self-cleavage amounted to 0.107.

In the case of G42U A47C, the self-cleavage came out at 0.22.

For the variant G42U A47U, the self-cleavage was determined as 0.12.

Take A43C A45U: the self-cleavage was 0.203.

A43C A45G: the self-cleavage came out at 0.116.

On to A41C U67A, for which the self-cleavage was determined as 0.27.

On to A43U U55C, for which the self-cleavage was 0.0805.

Take G42A A71G: the self-cleavage amounted to 0.296.

A41G C48A: the self-cleavage stood at 0.0982.

For A41C U62C, the self-cleavage is 0.329.

As to G42U G69A, the self-cleavage came to 0.142.

As for G42U G69C, the self-cleavage was determined as 0.136.

Regarding G42U G69U, the self-cleavage came out at 0.136.

As to A41G C46U, the self-cleavage is 0.0954.

For A43C A71G, the self-cleavage was found to be 0.186.

In the case of A43U U60G, the self-cleavage was determined as 0.0802.

As to G42C G56U, the self-cleavage was 0.117.

With A41G U63A, the self-cleavage turned out to be 0.328.

Turning to G40C U52A, the self-cleavage worked out at 0.209.

Turning to A43G G57C, the self-cleavage worked out at 0.195.

For the variant A41C G42C, the self-cleavage stood at 0.218.

A44C G68U: the self-cleavage was determined as 0.126.

As to G42C U58G, the self-cleavage was 0.289.

A43G A45U: the self-cleavage came out at 0.0816.

For the variant A41U G68A, the self-cleavage amounted to 0.504.

On to G42U G56A, for which the self-cleavage was 0.231.

Take A41C G68C: the self-cleavage is 0.225.

For A41C G68U, the self-cleavage is 0.177.

In the case of A41C G68A, the self-cleavage was determined as 0.249.

On to A41C G57A, for which the self-cleavage was 0.128.

As to G42C G51A, the self-cleavage was 0.415.

Regarding A41C A43U, the self-cleavage is 0.13.

In the case of G42U C46G, the self-cleavage turned out to be 0.156.

On to A41C U70C, for which the self-cleavage was determined as 1.04.

In the case of A43C U62G, the self-cleavage was 0.257.

For the variant G42A U63A, the self-cleavage turned out to be 0.174.

Turning to A44C G56U, the self-cleavage was determined as 0.241.

As for A43C G51C, the self-cleavage is 0.193.

A43C G51A: the self-cleavage is 0.0814.

For G42A G57U, the self-cleavage was 0.0918.

Consider A41G A45C, for which the self-cleavage came to 0.101.

Take A41G A45U: the self-cleavage is 0.105.

As to A41G A45G, the self-cleavage was 0.225.

Regarding A43U A44U, the self-cleavage worked out at 0.141.

Turning to A43U A44C, the self-cleavage was 0.157.

A41C A61C: the self-cleavage stood at 0.456.

As for G40C U62C, the self-cleavage was found to be 0.143.

Take G40C U62A: the self-cleavage worked out at 0.116.

Consider G42U U63C, for which the self-cleavage was 0.213.

For the variant A41C U52C, the self-cleavage amounted to 0.79.

A44C G54C: the self-cleavage was 0.0581.

As to A44C G54A, the self-cleavage was determined as 0.184.

On to A44C G54U, for which the self-cleavage was 0.194.

In the case of G42U U70G, the self-cleavage was found to be 0.105.

On to A41C C48A, for which the self-cleavage came to 0.218.

With A43C G57U, the self-cleavage came out at 0.149.

On to A43U C50A, for which the self-cleavage is 0.0923.

On to A41C U60G, for which the self-cleavage was 0.998.

As to A41G U60A, the self-cleavage was 0.761.

Consider A41C G69U, for which the self-cleavage turned out to be 0.341.

A41C G69C: the self-cleavage was 0.287.

Regarding A41C G69A, the self-cleavage came out at 0.524.

As for G40U G69A, the self-cleavage is 0.143.

As for G42U A44G, the self-cleavage worked out at 0.267.

As to A44C A47C, the self-cleavage stood at 0.121.

With A43C A47G, the self-cleavage stood at 0.0478.

On to A43U A45C, for which the self-cleavage was 0.0872.

Consider A43U A45G, for which the self-cleavage came out at 0.119.

With G42C U53G, the self-cleavage worked out at 0.244.

On to A44G G54U, for which the self-cleavage stood at 0.16.

A44C U62C: the self-cleavage came to 0.279.

In the case of A44C A61C, the self-cleavage was determined as 0.288.

Regarding A43C A64G, the self-cleavage came to 0.185.

In the case of A43C A64C, the self-cleavage worked out at 0.0846.

On to G40U U58C, for which the self-cleavage stood at 0.278.

For A43C A59G, the self-cleavage turned out to be 0.284.

Take A44C A45C: the self-cleavage amounted to 0.

As for A44G, the self-cleavage was found to be 0.146.

A44C: the self-cleavage is 0.148.

Regarding G42A U58A, the self-cleavage stood at 0.139.

For G42A U58G, the self-cleavage was 0.17.

On to A44C U60A, for which the self-cleavage is 0.172.

Consider G40U A71U, for which the self-cleavage is 0.131.

For the variant A41G A64C, the self-cleavage was 0.0864.

A41G A64U: the self-cleavage is 0.206.

Take A41U G54A: the self-cleavage worked out at 1.03.

With A43G U67A, the self-cleavage came to 0.125.

As for G40U U70A, the self-cleavage is 0.123.

On to A43C C65U, for which the self-cleavage amounted to 0.173.

A43C C65A: the self-cleavage came out at 0.102.

Turning to A43C C65G, the self-cleavage was 0.0609.

On to G40U A59U, for which the self-cleavage worked out at 0.14.

Regarding A43G A44C, the self-cleavage stood at 0.0882.

For the variant A41G U52A, the self-cleavage turned out to be 0.669.

As to A41U C65G, the self-cleavage is 0.563.

Take G42U U67C: the self-cleavage worked out at 0.131.

With A44C A49G, the self-cleavage worked out at 0.22.

Turning to A43U U58C, the self-cleavage came out at 0.189.
